This data set has as its system CgpS (Corynebacterium glutamicum ATCC 13032 (strain of the protein implied?)). Description: SPR. Particulars: SPR: biotinylated DNA on streptavidin chip, CgpS 180 s association, 420 s dissociation, EMSA: 14 nM DNA, buffer, salt, pH and temperature in Text S1, not in ….

With Pcg1999, the dissociation constant Kd turned out to be 0.058 µM.
Pcg3336 (control): the Kd (very fast dissociation) worked out at 0.381 µM.
Plys (SPR): the dissociation constant (Kd) turned out to be 0.011 µM.

As a reminder, the Kd is the concentration at which binding is half-saturated.

(Values after paper PMC7002338.)
